# From article PMC9482650, “Quantitative fragmentomics allow affinity mapping of interactomes” (Nature Communications, 2022)
# T1: NHERF3_4, Q5T2W1
# T1 sequence (Q5T2W1 373-468, limits assumed, looked up): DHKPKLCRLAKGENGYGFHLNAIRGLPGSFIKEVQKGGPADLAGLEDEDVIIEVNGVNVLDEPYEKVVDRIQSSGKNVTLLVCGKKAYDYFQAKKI
# T2: MPDZ_10, O75970
# T2 sequence (O75970 1624-1722, limits assumed, looked up): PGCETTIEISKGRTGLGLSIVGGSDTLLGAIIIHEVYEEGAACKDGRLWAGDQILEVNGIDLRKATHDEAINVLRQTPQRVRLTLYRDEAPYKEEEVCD
# T3: RADIL, Q96JH8
# T3 sequence (Q96JH8 971-1071, limits assumed, looked up): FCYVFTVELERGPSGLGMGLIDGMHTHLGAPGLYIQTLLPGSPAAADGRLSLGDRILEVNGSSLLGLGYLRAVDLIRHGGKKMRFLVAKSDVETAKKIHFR
# T4: RHPN1, Q8TCX5
# T4 sequence (Q8TCX5 508-602, limits assumed, looked up): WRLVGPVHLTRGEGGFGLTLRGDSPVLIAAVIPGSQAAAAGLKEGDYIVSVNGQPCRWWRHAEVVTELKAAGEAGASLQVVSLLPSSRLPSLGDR
# T5: HTRA4, P83105
# T5 sequence (P83105 378-476, limits assumed, looked up): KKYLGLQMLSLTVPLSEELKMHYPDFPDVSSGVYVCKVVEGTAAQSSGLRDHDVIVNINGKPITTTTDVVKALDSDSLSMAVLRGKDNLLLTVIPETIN
# T6: APBA3_1, O96018
# T6 sequence (O96018 389-490, limits assumed, looked up): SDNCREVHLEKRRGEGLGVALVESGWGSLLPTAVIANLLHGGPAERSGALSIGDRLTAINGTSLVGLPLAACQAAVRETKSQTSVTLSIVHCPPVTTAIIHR
# T7: APBA1_2, Q02410
# T7 sequence (Q02410 742-832, limits assumed, looked up): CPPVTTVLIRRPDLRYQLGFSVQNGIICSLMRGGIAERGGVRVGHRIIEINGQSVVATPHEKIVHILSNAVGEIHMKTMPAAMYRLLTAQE
# T8: LIN7C, Q9NUP9
# T8 sequence (Q9NUP9 88-185, limits assumed, looked up): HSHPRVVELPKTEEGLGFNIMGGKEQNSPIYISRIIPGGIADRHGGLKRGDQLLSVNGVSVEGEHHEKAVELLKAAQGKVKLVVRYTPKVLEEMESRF
# T9: SNTA1, Q13424
# T9 sequence (Q13424 82-180, limits assumed, looked up): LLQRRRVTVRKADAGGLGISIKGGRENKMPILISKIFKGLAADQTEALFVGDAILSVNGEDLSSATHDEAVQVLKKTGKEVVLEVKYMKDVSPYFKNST
# T10: LNX2_3, Q8N448
# T10 sequence (Q8N448 463-564, limits assumed, looked up): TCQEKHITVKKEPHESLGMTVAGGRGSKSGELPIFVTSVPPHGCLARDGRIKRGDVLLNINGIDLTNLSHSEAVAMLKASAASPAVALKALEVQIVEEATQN
# T11: MPDZ_12, O75970
# T11 sequence (O75970 1857-1958, limits assumed, looked up): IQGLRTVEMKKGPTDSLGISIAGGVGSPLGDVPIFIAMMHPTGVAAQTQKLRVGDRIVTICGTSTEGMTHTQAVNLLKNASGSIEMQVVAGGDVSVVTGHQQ
# Experiments:
# Assay in all cases: holdup assay
# Parameters in all cases: key: below the threshold = too weak to quantify, mostly under pKd 3.1 to 4
# Settings in all cases: plain residues with an end cap or a label only (N-terminal biotin on a linker: ttds)
# [1] = molecular target: DLG1_2, Q12959
# [2] = molecular target: T1, NHERF3_4, Q5T2W1
# [3] = molecular target: GIPC2, Q8TF65
# [4] = molecular target: SCRIB_3, Q14160
# [5] = molecular target: T2, MPDZ_10, O75970
# [6] = molecular target: GRASP, Q7Z6J2
# [7] = molecular target: AHNAK1, Q09666
# [8] = molecular target: T3, RADIL, Q96JH8
# [9] = molecular target: MAST2, Q6P0Q8
# [10] = molecular target: MAGI2_6, Q86UL8
# [11] = molecular target: T4, RHPN1, Q8TCX5
# [12] = molecular target: GORASP2, Q9H8Y8
# [13] = molecular target: PTPN3, P26045
# [14] = molecular target: Inadl_9, Q8NI35
# [15] = molecular target: Inadl_8, Q8NI35
# [16] = molecular target: NHERF4_1, Q86UT5-2
# [17] = molecular target: NOS1, P29475
# [18] = molecular target: T5, HTRA4, P83105
# [19] = molecular target: T6, APBA3_1, O96018
# [20] = molecular target: MAGI2_3, Q86UL8
# [21] = molecular target: FRMPD2_1, Q68DX3
# [22] = molecular target: T7, APBA1_2, Q02410
# [23] = molecular target: T8, LIN7C, Q9NUP9
# [24] = molecular target: T9, SNTA1, Q13424
# [25] = molecular target: DLG4_3, P78352
# [26] = molecular target: T10, LNX2_3, Q8N448
# [27] = molecular target: T11, MPDZ_12, O75970
# Inadl_8, Q8NI35, sequence (Q8NI35 1425-1530): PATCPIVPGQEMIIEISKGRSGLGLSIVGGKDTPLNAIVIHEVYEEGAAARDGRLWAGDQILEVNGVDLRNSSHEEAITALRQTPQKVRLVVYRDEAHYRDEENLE
# MAGI2_3, Q86UL8, sequence (Q86UL8 600-682): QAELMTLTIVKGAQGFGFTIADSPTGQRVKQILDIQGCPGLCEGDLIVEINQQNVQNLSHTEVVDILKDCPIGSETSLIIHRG
# FRMPD2_1, Q68DX3, sequence (Q68DX3 770-861): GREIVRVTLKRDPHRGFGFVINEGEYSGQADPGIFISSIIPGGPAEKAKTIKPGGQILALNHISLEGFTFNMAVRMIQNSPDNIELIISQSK
# GRASP, Q7Z6J2, sequence (Q7Z6J2 96-193): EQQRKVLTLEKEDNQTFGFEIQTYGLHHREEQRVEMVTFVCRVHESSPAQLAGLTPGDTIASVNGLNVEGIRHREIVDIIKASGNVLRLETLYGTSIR
# AHNAK1, Q09666, sequence (Q09666 4-100): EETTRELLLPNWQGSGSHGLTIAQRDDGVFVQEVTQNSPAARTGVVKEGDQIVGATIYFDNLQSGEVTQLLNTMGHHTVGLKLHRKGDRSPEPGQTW
# MAST2, Q6P0Q8, sequence (Q6P0Q8 1099-1202): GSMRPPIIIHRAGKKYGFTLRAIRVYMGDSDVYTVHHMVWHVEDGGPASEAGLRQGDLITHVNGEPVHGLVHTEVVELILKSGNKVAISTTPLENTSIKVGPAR
# Inadl_9, Q8NI35, sequence (Q8NI35 1530-1615): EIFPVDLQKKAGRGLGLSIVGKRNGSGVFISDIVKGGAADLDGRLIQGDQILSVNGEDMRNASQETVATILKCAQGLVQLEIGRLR
# NOS1, P29475, sequence (P29475 9-101): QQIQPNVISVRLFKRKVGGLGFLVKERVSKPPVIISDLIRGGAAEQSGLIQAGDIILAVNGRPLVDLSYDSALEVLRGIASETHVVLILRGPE
# DLG4_3, P78352, sequence (P78352 306-403): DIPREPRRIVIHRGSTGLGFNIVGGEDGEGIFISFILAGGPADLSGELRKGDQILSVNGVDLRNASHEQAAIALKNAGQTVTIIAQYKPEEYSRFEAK
# NHERF4_1, Q86UT5-2, sequence (Q86UT5 other isoform, or with tags, fused parts or gaps): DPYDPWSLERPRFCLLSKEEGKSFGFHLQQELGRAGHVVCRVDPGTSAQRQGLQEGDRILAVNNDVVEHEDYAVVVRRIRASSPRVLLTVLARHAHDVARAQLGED
# PTPN3, P26045, sequence (P26045 505-587): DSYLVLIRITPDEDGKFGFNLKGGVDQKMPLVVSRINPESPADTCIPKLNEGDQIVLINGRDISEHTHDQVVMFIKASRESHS
# MAGI2_6, Q86UL8, sequence (Q86UL8 1141-1229): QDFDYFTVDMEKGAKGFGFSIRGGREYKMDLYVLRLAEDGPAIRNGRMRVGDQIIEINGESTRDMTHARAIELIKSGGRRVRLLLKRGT
# GIPC2, Q8TF65, sequence (Q8TF65 112-203): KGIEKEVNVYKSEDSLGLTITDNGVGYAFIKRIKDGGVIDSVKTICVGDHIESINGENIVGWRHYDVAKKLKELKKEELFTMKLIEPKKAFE
# DLG1_2, Q12959, sequence (Q12959 314-412): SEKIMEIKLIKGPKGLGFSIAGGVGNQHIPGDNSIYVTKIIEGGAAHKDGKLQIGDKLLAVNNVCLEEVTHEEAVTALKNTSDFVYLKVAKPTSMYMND
# SCRIB_3, Q14160, sequence (Q14160 999-1103): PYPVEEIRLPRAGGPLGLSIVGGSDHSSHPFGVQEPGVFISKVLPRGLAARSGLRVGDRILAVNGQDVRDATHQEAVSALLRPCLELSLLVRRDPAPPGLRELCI
Binder,pKd [1],pKd [2],pKd [3],pKd [4],pKd [5],pKd [6],pKd [7],pKd [8],pKd [9],pKd [10],pKd [11],pKd [12],pKd [13],pKd [14],pKd [15],pKd [16],pKd [17],pKd [18],pKd [19],pKd [20],further results
"SRPQRTQTQV [HPV67-E6, A4U7F2]",5.01,below the threshold,below the threshold,3.93,3.4,below the threshold,below the threshold,below the threshold,5.27,below the threshold,3.84,below the threshold,3.95,below the threshold,below the threshold,below the threshold,3.81,below the threshold,below the threshold,below the threshold,pKd [21]: 3.79; pKd [22]: 3.54; pKd [23]: below the threshold; pKd [24]: 3.94; pKd [25]: 4.23; pKd [26]: below the threshold; pKd [27]: below the threshold
"RSLEEEESQL [GRASP, Q7Z6J2]",below the threshold,below the threshold,4.17,4.23,below the threshold,3.99,3.93,3.53,5.6,below the threshold,4.71,below the threshold,4.83,below the threshold,3.71,3.9,3.6,below the threshold,below the threshold,3.65,pKd [21]: below the threshold; pKd [22]: 3.65; pKd [23]: 3.78; pKd [24]: below the threshold; pKd [25]: 3.75; pKd [26]: below the threshold; pKd [27]: below the threshold
"ERKLSSESQV [LRP4, O75096]",4.75,below the threshold,4.22,3.93,below the threshold,below the threshold,below the threshold,below the threshold,4.34,3.51,3.96,4.39,4.61,below the threshold,below the threshold,below the threshold,3.81,below the threshold,below the threshold,below the threshold,pKd [21]: below the threshold; pKd [22]: below the threshold; pKd [23]: below the threshold; pKd [24]: 3.78; pKd [25]: below the threshold; pKd [26]: below the threshold; pKd [27]: below the threshold
